Patent US20260209362A1 (VIB VZW, published 2026)
Substitutions are numbered along the chain they refer to.

T1: biotinylated recombinant mouse IL-12Rβ2 (mouse, UniProt P97378 24-637, random biotinylated)
T1 construct: Recombinant protein produced in-house; also called mIL-12RB2; mouse IL-12RB2
T1 sequence: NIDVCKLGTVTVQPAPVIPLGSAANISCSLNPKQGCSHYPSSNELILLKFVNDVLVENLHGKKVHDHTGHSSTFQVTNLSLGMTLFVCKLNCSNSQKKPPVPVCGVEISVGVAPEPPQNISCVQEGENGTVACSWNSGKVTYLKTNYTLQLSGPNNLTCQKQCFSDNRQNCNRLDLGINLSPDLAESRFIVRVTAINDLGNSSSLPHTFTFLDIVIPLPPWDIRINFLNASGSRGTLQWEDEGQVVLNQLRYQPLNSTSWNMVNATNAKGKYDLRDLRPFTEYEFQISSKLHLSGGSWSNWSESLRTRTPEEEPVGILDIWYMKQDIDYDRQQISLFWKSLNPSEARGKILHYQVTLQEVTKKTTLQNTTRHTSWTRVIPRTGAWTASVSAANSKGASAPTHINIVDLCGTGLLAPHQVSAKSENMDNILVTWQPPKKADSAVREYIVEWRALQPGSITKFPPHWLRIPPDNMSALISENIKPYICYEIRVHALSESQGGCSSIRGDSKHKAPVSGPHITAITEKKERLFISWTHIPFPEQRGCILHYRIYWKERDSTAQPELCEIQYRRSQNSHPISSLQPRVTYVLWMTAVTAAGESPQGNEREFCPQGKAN

T2: biotinylated recombinant human IL-12Rβ2 (human, UniProt Q99665 24-622, random biotinylated)
T2 construct: Recombinant protein produced in-house; also called hIL-12RB2; human IL-12RB2
T2 sequence: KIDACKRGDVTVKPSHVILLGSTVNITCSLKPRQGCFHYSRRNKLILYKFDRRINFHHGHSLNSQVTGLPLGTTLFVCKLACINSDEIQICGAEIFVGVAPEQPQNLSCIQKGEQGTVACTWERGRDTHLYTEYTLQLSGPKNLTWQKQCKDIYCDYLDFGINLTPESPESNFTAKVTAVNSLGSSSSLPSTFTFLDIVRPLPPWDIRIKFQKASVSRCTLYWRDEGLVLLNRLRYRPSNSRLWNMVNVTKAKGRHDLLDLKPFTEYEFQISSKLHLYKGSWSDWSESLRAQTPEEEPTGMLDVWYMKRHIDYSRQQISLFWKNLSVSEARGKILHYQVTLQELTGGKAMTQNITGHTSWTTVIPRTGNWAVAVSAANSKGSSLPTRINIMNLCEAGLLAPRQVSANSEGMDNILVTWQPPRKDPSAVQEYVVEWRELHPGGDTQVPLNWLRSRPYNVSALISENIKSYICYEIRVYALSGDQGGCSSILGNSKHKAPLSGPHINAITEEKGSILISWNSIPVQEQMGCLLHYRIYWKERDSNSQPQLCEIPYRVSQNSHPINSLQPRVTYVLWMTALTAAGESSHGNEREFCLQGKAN

B1: anti-IL-12Rβ2 VHH clone 3CRH25 (clone ID 20378) (VHH, not shown: small tags and cut ends)
VHH: QVQLQESGGGLVQAGDSLRLSCTASGHTFSRYTTIGWFRQAPGKDREFVAAIRWSGDITDYADAVKGRFTISRDNVKNTVYLQMNSLNPEDTAVYYCARGYSEYGVLSRNRGLYAYWGQGTQVTVSS
notes: periplasmic extract
B2: anti-IL-12Rβ2 VHH clone 3CRH64 (clone ID 20386) (VHH, not shown: small tags and cut ends)
VHH: B1 VHH with D16G, M84T
notes: periplasmic extract
B3: anti-IL-12Rβ2 VHH clone 3CRHS77 (clone ID 20425) (VHH, not shown: small tags and cut ends)
VHH: B1 VHH with D16G, R31S, D45E, R53G, D74H, K77E
notes: periplasmic extract
B4: anti-IL-12Rβ2 VHH clone 3CAH32 (clone ID 20357) (VHH, not shown: small tags and cut ends)
VHH: QVQLQESGGGLVQPGGSLRLSCAASGSILRINLMGWYRQVPGKQRELVAEMSTGGSTTYVDSVKGRFTISRDNAKNTVYLQMNSLKPEDTAVYYCNAKAWQLGRLENDDWGQGTQVTVSS
notes: periplasmic extract
B5: anti-IL-12Rβ2 VHH clone 3CAHS102 (clone ID 20399) (VHH, not shown: small tags and cut ends)
VHH: B4 VHH with K64E
notes: periplasmic extract
B6: anti-IL-12Rβ2 VHH clone 3CAHS41 (clone ID 20394) (VHH, not shown: small tags and cut ends)
VHH: QVQLQESGGGLVQAGDSLRLSCAASGRTFDTYIVGWFRQAPGKEREFVSALSWSDDTTIRDDSLRGRFTISRDNAKNTVYLLMNSLKPEDTAVYYCAAKAKPPAATWSSYRNREWYDYWGQGTQVTVSS
notes: periplasmic extract
B7: anti-IL-12Rβ2 VHH clone 3CAHS180 (clone ID 20410) (VHH, not shown: small tags and cut ends)
VHH: B6 VHH with I70L
notes: periplasmic extract
B8: anti-IL-12Rβ2 VHH clone 3CRHS99 (clone ID 20427) (VHH, not shown: small tags and cut ends)
VHH: QVQLQESGGGLVQPGGSLRLSCKASGFTFSTYAMSWVRQAPGKGLEWVSAINSGGLSTDYADSVEGRFTISRDDAKNMLFLQMNSLKAEDTARYYCAKYEDCSDYMCHRDRAGYWGQGTQVTVSS
notes: periplasmic extract
B9: anti-IL-12Rβ2 VHH clone 3CRHS106 (clone ID 20429) (VHH, not shown: small tags and cut ends)
VHH: B8 VHH with I51V, A88P
notes: periplasmic extract
B10: anti-IL-12Rβ2 VHH clone 2CRH41 (clone ID 20365) (VHH, not shown: small tags and cut ends)
VHH: QVQLQESGGGLVQPGGSLRLSCTASGFAFSSYWMYWVRQSPEKGFEWVSVVDTDGGITYYADSVKGRFTISRDNAKNTLYLQMNSLKPQDTALYYCARDRTTLEYTRTYYRTGQGTQVTVSS
notes: periplasmic extract
B11: anti-IL-12Rβ2 VHH clone 3CRHS163 (clone ID 20438) (VHH, not shown: small tags and cut ends)
VHH: B10 VHH with S31T, V37I, D52N, D54G, G56D, Q89E, L103M, E104S, T112G
notes: periplasmic extract
B12: anti-IL-12Rβ2 VHH clone 3CRH28 (clone ID 20380) (VHH, not shown: small tags and cut ends)
VHH: QVQLQESGGGLVQPGGSLTLSCAASGFTFSSNAMSWVRQAPGKGLEWVSSISSGGGTTYYTDSVKGRFTTARDNAKNTLYLRMNSLKPEDTAVYYCSKSSTGSGSRGQGTQVTVSS
notes: periplasmic extract
B13: anti-IL-12Rβ2 VHH clone 3CAHS79 (clone ID 20398) (VHH, not shown: small tags and cut ends)
VHH: QVQLQESGGGLVQPGGSLRLTCVASGFPFSTHAMSWVRQPPGKGREWISAINSGGDSTDYADSVMGRFTISRDNAKNTVYLQMNSLKSEDTAVYYCAKYEDCSDYDCSSRASWGQGTQVTVSS
notes: periplasmic extract
B14: anti-IL-12Rβ2 VHH clone 3CAHS171 (clone ID 20407) (VHH, not shown: small tags and cut ends)
VHH: B13 VHH with V93A
notes: periplasmic extract
B15: anti-IL-12Rβ2 VHH clone 3CRH59 (clone ID 20385) (VHH, not shown: small tags and cut ends)
VHH: QVQLQESGGGLVQPGGSLRLSCTASGFAFSSYWMYWVRQTPGKGFEWVSVVNPGGEITYYGDSMEDRFTISRDNAKNTLYLQMNSLKPEDTGLYYCARDRTTIDYTRTYYRGGQGTQVTVSS
notes: periplasmic extract
B16: anti-IL-12Rβ2 VHH clone 3CRHS31 (clone ID 20418) (VHH, not shown: small tags and cut ends)
VHH: QVQLQESGGGLVQAGGSLRLSCAASGFTFSTYAMSWVRQAPGKGLEWVSSVNSGGLSTDYADSVEGRFTISRDDAKNMLFLQMNSLKPEDTARYYCAKYEDCSDYVCDRAGYWGQGTQVTVSS
notes: periplasmic extract
B17: anti-IL-12Rβ2 VHH clone 3CRHS51 (clone ID 20421) (VHH, not shown: small tags and cut ends)
VHH: B16 VHH with A14P, S50A, S85R
notes: periplasmic extract
B18: anti-IL-12Rβ2 VHH clone 3CAH60 (clone ID 20361) (VHH, not shown: small tags and cut ends)
VHH: QVQLQESGGGLVQPGGSLILSCVASGFAMDYLTMGWSREAPRNEREDISCIDTSGRSTDYLDSVKGRFTISRDNAKNTLYLHMNDLKPEDTAEYYCLASTSYCGAGYEYRGQGTQVTVSS
notes: periplasmic extract
B19: anti-IL-12Rβ2 VHH clone 2CRH62 (clone ID 20368) (VHH, not shown: small tags and cut ends)
VHH: QVQLQESGGGLVQPGGSLRLSCVESGRTFTVYDMGWFRQAPGKEREIVAAISADGATSIYQDSVKGRFTISRDNDAKNTVYLQMNSLKPEDTAVYYCAAGRSLIYNLYRANNTDYWGQGTQVTVSS
notes: periplasmic extract
B20: anti-IL-12Rβ2 VHH clone 3CAH28 (clone ID 20356) (VHH, not shown: small tags and cut ends)
VHH: QVQLQESGGGLVQSGASLRLSCAASERTLSGYAMGWFRQAPGKEREFVAAIRWSGSSTYYAESVEGRFTISRDNAKNTVYLQMNILKPEDTAVYYCAAGSDYADEYDYWGQGTQVTVSS
notes: periplasmic extract

Experiments:
[1] = target: T1, biotinylated recombinant mouse IL-12Rβ2; assay: ELISA, P.E., biotinylated antigen
[2] = target: T2, biotinylated recombinant human IL-12Rβ2; assay: ELISA, P.E., biotinylated antigen
[3] = target: T2, biotinylated recombinant human IL-12Rβ2; assay: BLI, P.E., off-rate ranking

| Binder | ELISA mIL-12RB2/control [1] | ELISA hIL-12RB2/control [2] | Response [3] | koff [3] [s⁻¹] |
| --- | --- | --- | --- | --- |
| B1 | 1.04 | 5.16 | 0.523 | 0.00205 |
| B2 | 1.41 | 4.94 | 0.726 | 0.00428 |
| B3 | 1.02 | 6.37 | 0.551 | 0.00426 |
| B4 | 0.842 | 4.31 | 0.607 | 0.00419 |
| B5 | 1.02 | 3.54 | 0.323 | 0.00267 |
| B6 | 1.35 | 8.77 | 0.609 | 0.00441 |
| B7 | 1.19 | 4.78 | 0.376 | 0.00265 |
| B8 | 0.908 | 3.13 | 0.259 | 0.00405 |
| B9 | 1.03 | 10.2 | 0.297 | 0.00355 |
| B10 | 1.64 | 3.8 | 0.493 | 0.00496 |
| B11 | 0.927 | 3.58 | 0.339 | 0.00302 |
| B12 | 0.975 | 3.64 | 0.4 | 0.00428 |
| B13 | 1.04 | 3.71 | 0.268 | 0.00434 |
| B14 | 0.961 | 3.27 | 0.195 | 0.00431 |
| B15 | 1.89 | 15.9 | 0.487 | 0.00453 |
| B16 | 1.16 | 10.9 | 0.234 | 0.00429 |
| B17 | 0.946 | 12 | 0.327 | 0.0043 |
| B18 | 1.9 | 3.91 | 0.59 | 0.00517 |
| B19 | 0.868 | 3.51 | 0.643 | 0.00622 |
| B20 | 0.4 | 7.57 | 0.576 | 0.00483 |
